Source: PMC8561282 (Haematologica, 2021)
One block for each binder: values may come before it.

Target: recombinant glyceraldehyde 3-phosphate dehydrogenase (GAPDH) tetramer (UniProt P04406 1-335)
Assay: ITC

recombinant glyceraldehyde 3-phosphate dehydrogenase (GAPDH) tetramer, sequence (P04406 whole entry): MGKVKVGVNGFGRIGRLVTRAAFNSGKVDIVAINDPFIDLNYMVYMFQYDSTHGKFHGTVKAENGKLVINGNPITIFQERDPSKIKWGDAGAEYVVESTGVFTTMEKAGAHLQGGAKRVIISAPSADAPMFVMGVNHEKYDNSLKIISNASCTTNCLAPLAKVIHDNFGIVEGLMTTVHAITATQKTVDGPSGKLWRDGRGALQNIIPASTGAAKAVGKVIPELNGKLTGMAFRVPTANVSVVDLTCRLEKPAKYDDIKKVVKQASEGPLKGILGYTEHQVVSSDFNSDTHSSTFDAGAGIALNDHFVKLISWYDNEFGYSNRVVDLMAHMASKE

Kd: 44.8 mM
B1: recombinantly expressed AE1 peptide spanning residues 1-30 (domain or fragment)
chain: MEELQDDYEDMMEENLEQEEYEDPDIPESQ

Kd: 2.56 mM
B2: recombinantly expressed band 3 (AE1) peptide, residues 1-56 (domain or fragment)
chain: MEELQDDYEDMMEENLEQEEYEDPDIPESQMEEPAAHDTEATATDYHTTSHPGTHK
